Measurements reported in US20220251204A1 (AstraZeneca / MedImmune, published 2022).

How the values were obtained:
[1] = molecular target: T1, human PD-1 expressed on cells (human, UniProt Q15116 25-288); assay: cell-based or functional assay
[2] = molecular target: T2, human OX40 expressed on cells (human, UniProt P43489 29-277); assay: cell-based or functional assay
T2 sequence: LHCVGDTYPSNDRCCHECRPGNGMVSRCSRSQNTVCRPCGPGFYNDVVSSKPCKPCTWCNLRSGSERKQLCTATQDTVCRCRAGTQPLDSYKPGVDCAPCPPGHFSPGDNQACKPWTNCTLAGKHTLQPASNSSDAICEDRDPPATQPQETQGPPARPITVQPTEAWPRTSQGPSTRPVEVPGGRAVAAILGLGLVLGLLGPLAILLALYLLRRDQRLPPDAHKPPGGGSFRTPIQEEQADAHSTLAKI

[3] = molecular target: T1, human PD-1 expressed on cells; assay: flow cytometry, HumanPD1 CHO cells, x axis hIgG1TM mAb (nM)
[4] = molecular target: T1, human PD-1 expressed on cells; assay: flow cytometry, CHO cells expressing PD-1:CTLA-4 (10:1)
cynomolgus PD-1 = molecular target: T3, cynomolgus PD-1 (cynomolgus, UniProt B0LAJ3 25-170); assay: SPR, BIAcore T200; antibody captured on mouse anti-huIgG-Fab, antigen injected
T3 construct: also called cyno PD1

mouse PD-1 = molecular target: T4, mouse PD-1 (mouse, UniProt Q02242 25-167); assay: as above
T4 construct: also called mu PD1
T4 sequence (looked up): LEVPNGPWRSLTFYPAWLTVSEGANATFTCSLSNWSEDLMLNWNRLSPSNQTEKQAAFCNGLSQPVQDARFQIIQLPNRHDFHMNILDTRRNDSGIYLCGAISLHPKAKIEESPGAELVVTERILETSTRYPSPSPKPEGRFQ

[5] = molecular target: T5, human PD-1 antigen (soluble) (human, UniProt Q15116 25-170); assay: as above
T5 construct: also called hu PD1; Biotinylated human PD-1

[6] = molecular target: T1, human PD-1 expressed on cells; assay: flow cytometry, IgG binding to cultured T cells stimulated with anti-CD3+anti-CD28, CD4+ gate
[7] = molecular target: T1, human PD-1 expressed on cells; assay: flow cytometry receptor occupancy, CHO cells expressing PD-1:CTLA-4 (10:1); free PD-1 detected with labeled anti-PD-1 mAb
[8] = molecular target: T1, human PD-1 expressed on cells; assay: flow cytometry receptor occupancy, CHO cells expressing PD-1:CTLA-4 (40:1); free PD-1 detected with labeled anti-PD-1 mAb
[9] = molecular target: T1, human PD-1 expressed on cells; assay: flow cytometry receptor occupancy, CHO cells expressing PD-1:CTLA-4 (40:1), combination of the anti-PD-1 and anti-CTLA-4 mAbs; free PD-1 detected with labeled anti-PD-1 mAb; the light-triangle curve crosses 50 % at about 6 to 7 nM
[10] = molecular target: T6, CD32a expressed on HEK cells (UniProt P12318 34-317); assay: flow cytometry (HyperCyt, FL4-H median) on HEK CD32a cells, concentration not given
T6 construct: whole, on cells; also called HEK CD32a cells
T6 sequence (looked up): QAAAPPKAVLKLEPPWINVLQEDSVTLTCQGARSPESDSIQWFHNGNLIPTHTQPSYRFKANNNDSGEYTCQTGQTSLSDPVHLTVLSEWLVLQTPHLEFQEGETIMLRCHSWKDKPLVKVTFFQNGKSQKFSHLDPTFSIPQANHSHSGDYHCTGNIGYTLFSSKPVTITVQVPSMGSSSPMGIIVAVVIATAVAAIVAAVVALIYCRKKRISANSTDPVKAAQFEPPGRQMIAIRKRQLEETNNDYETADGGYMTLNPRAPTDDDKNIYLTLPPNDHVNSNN

[11] = molecular target: T7, hOX40-Fc (human recombinant protein, R&D Systems) (human, UniProt P43489 29-216); assay: Octet: antibody held on PDL1-HiS-Fc loaded anti-HiS sensor, then 5ug/mL rhOx40-Fc association
T7 construct: also called human OX40-Fc; not shown: Fc part of the bought fusion
T7 sequence: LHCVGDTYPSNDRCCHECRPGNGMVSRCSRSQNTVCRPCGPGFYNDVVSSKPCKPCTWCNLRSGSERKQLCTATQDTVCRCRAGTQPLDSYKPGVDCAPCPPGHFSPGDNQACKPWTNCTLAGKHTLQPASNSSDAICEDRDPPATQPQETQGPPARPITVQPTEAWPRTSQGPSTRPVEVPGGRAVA

[12] = molecular target: T2, human OX40 expressed on cells; assay: flow cytometry (HyperCyt, FL4-H median) on Jurkat OX40 cells, one condition, concentration not given
[13] = molecular target: T8, human TIM3 expressed on CHO cells (human, UniProt Q8TDQ0 22-301); assay: flow cytometry, Human TIM3 CHO cells, x axis hIgG1TM (nM)
T8 construct: also called CHO cells overexpressing human TIM3
T8 sequence: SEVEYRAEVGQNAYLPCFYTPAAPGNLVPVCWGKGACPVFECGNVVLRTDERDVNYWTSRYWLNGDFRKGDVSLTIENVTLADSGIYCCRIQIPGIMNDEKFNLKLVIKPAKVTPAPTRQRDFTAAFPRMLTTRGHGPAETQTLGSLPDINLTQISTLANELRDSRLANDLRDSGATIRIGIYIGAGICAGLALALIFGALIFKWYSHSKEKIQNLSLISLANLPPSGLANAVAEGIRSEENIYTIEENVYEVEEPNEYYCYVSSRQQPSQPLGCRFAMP

human TIM3 (soluble) = molecular target: T9, human TIM3 (soluble) (human, UniProt Q8TDQ0 22-202); assay: SPR, BIAcore T200; antibody captured on mouse anti-huIgG-Fab, antigen injected
T9 construct: also called Biotinylated human TIM3
T9 sequence: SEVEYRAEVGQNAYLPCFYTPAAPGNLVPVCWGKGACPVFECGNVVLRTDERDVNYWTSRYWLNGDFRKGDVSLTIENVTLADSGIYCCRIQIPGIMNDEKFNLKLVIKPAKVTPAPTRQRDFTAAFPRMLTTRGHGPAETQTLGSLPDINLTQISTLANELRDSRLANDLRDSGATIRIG

cynomolgus TIM3 = molecular target: T10, cynomolgus TIM3 (cynomolgus, UniProt A0A2K5U3G7 22-195); assay: as above
T10 construct: also called Cyno TIM3
T10 sequence: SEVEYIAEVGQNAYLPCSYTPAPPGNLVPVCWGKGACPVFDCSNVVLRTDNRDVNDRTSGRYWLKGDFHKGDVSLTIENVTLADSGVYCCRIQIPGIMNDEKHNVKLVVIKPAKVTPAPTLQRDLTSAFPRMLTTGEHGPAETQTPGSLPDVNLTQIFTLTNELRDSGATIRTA

T3 sequence (B0LAJ3 entry or part of it limits assumed): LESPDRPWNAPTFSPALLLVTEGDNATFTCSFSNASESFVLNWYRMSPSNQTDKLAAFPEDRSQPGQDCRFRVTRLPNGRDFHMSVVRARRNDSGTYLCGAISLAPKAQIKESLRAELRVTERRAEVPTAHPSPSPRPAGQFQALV
T5 sequence (Q15116 25-170 limits assumed): as the sequence (B0LAJ3 entry or part of it limits assumed) above, with E2D, A10P, L19V, A35T, R75Q, A144T counted along it
T1 sequence (Q15116 25-288 limits assumed): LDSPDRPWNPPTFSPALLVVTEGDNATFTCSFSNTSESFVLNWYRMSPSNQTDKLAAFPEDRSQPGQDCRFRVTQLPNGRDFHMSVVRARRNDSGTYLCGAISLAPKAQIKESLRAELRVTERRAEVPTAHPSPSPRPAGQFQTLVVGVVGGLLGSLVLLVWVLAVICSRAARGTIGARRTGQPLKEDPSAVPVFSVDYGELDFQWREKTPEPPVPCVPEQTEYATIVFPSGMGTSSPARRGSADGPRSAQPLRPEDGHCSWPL

B1: PD-1(LO115)/OX40 BiS2 mAb (bispecific antibody, human IgG4 S228P, kappa)
heavy: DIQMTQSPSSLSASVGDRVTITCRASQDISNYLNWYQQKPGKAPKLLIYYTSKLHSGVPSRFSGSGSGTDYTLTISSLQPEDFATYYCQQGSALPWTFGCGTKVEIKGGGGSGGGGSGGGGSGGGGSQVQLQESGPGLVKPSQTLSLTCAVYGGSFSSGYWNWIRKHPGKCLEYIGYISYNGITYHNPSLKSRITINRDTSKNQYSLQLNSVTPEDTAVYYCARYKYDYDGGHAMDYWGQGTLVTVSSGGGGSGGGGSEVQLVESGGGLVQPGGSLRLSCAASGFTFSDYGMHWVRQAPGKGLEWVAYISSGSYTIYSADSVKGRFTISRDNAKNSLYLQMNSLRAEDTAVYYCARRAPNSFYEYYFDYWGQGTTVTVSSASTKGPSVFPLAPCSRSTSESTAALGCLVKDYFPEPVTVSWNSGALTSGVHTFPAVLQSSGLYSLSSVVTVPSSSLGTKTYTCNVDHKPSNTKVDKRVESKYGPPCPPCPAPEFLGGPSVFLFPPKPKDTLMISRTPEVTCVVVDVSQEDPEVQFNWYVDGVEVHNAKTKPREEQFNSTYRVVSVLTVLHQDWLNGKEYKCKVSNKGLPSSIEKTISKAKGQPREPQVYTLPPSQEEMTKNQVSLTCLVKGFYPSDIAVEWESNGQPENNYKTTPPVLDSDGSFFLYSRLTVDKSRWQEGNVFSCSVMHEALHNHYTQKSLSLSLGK
light: QIVLTQSPATLSLSPGERATLSCSASSKHTNLYWSRHMYWYQQKPGQAPRLLIYLTSNRATGIPARFSGSGSGTDFTLTISSLEPEDFAVYYCQQWSSNPFTFGQGTKLEIKRTVAAPSVFIFPPSDEQLKSGTASVVCLLNNFYPREAKVQWKVDNALQSGNSQESVTEQDSKDSTYSLSSTLTLSKADYEKHKVYACEVTHQGLSSPVTKSFNRGEC
PD-1/PD-L1 reporter assay, EC50 (relative light units) [1]: ~1 nM
OX40 reporter assay, EC50 (relative light units) [2]: ~2 nM

B2: BiS3 PD-1(LO115)/TIM3(O13-1) (bispecific antibody, human IgG1, kappa)
heavy: EVQLVESGGGLVQPGGSLRLSCAASGFTFSDYGMHWVRQAPGKGLEWVAYISSGSYTIYSADSVKGRFTISRDNAKNSLYLQMNSLRAEDTAVYYCARRAPNSFYEYYFDYWGQGTTVTVSSASTKGPSVFPLAPSSKSTSGGTAALGCLVKDYFPEPVTVSWNSGALTSGVHTFPAVLQSSGLYSLSSVVTVPSSSLGTQTYICNVNHKPSNTKVDKRVEPKSCDKTHTCPPCPAPEFEGGPSVFLFPPKPKDTLMISRTPEVTCVVVDVSHEDPEVKFNWYVDGVEVHNAKTKPREEQYNSTYRVVSVLTVLHQDWLNGKEYKCKVSNKALPASIEKTISKAKGQPREPQVYTLPPSREEMTKNQVSLTCLVKGFYPSDIAVEWESNGQPENNYKTTPPVLDSDGSFFLYSKLTVDKSRWQQGNVFSCSVMHEALHNHYTQKSLSLSPGKGGGGSGGGGSEVQLLESGGGLVQPGGSLRLSCAASGFTFSSYAMSWVRQAPGKCLEWVSAISGSGGSTYYADSVKGRFTISRDNSKNTLYLQMNSLRAEDTAVYYCARGSYGTYYGNYFEYWGQGTLVTVSSGGGGSGGGGSGGGGSGGGGSSYVLTQPPSVSVAPGKTARITCGGDNIGGKSVHWYQQKPGQAPVLVIYYDSDRPSGIPERFSGSNSGNTATLTISRVEAGDEADYYCQVLDRRSDHFLFGCGTKLTVL
light: QIVLTQSPATLSLSPGERATLSCSASSKHTNLYWSRHMYWYQQKPGQAPRLLIYLTSNRATGIPARFSGSGSGTDFTLTISSLEPEDFAVYYCQQWSSNPFTFGQGTKLEIKRTVAAPSVFIFPPSDEQLKSGTASVVCLLNNFYPREAKVQWKVDNALQSGNSQESVTEQDSKDSTYSLSSTLTLSKADYEKHKVYACEVTHQGLSSPVTKSFNRGEC
notes: also called PD-1/TIM3 BiS3
EC50 (read off the curve) [3]: ~4 nM

B3: Anti-PD-1 (LO115) IgG (antibody, V domains shown)
VH: EVQLVESGGGLVQPGGSLRLSCAASGFTFSDYGMHWVRQAPGKGLEWVAYISSGSYTIYSADSVKGRFTISRDNAKNSLYLQMNSLRAEDTAVYYCARRAPNSFYEYYFDYWGQGTTVTVSS
VL: QIVLTQSPATLSLSPGERATLSCSASSKHTNLYWSRHMYWYQQKPGQAPRLLIYLTSNRATGIPARFSGSGSGTDFTLTISSLEPEDFAVYYCQQWSSNPFTFGQGTKLEIK
notes: also called anti-PD-1 parental monoclonal antibody
EC50 (read off the curve) [4]: ~2 nM
Kd (cynomolgus PD-1): 0.69 nM
koff (cynomolgus PD-1): 0.000238 s⁻¹
kon (cynomolgus PD-1): 346000 M⁻¹ s⁻¹
Kd (mouse PD-1): 447 nM
koff (mouse PD-1): 0.0665 s⁻¹
kon (mouse PD-1): 149000 M⁻¹ s⁻¹
Kd [5]: 0.79 nM
koff [5]: 0.000237 s⁻¹
kon [5]: 302000 M⁻¹ s⁻¹
EC50 (read off the curve) [6]: ~1 nM
IC50 [7]: 3.9 nM
IC50 [8]: 5.5 nM
IC50 [9]: 6.4 nM

B4: OX40(SLR)/PD-L1 BiS5 (bispecific antibody, human IgG1, kappa)
heavy: QVQLQESGPGLVKPSQTLSLTCAVYGGSFSSGYWNWIRKHPGKGLEYIGYISYNAITYHNPSLKSRITINRDTSKNQYSLQLNSVTPEDTAVYYCARYKYDYEGGHAMDYWGQGTLVTVSSASTKGPSVFPLAPSSKSTSGGTAALGCLVKDYFPEPVTVSWNSGALTSGVHTFPAVLQSSGLYSLSSVVTVPSSSLGTQTYICNVNHKPSNTKVDKRVEPKSCDKTHTCPPCPAPELLGGPSVFLFPPKPKDTLMISRTPEVTCVVVDVSHEDPEVKFNWYVDGVEVHNAKTKPREEQYNSTYRVVSVLTVLHQDWLNGKEYKCKVSNKALPAPIEKTISKAKGQPREPQVYTLPPSREEMTKNQVSLTCLVKGFYPSDIAVEWESNGGGGSGGGGSEVQLVESGGGLVQPGGSLRLSCAASGFTFSRYWMSWVRQAPGKCLEWVANIKQDGSEKYYVDSVKGRFTISRDNAKNSLYLQMNSLRAEDTAVYYCAREGGWFGELAFDYWGQGTLVTVSSGGGGSGGGGSGGGGSGGGGSEIVLTQSPGTLSLSPGERATLSCRASQRVSSSYLAWYQQKPGQAPRLLIYDASSRATGIPDRFSGSGSGTDFTLTISRLEPEDFAVYYCQQYGSLPWTFGCGTKVEIKGGGGSGGGGSGQPENNYKTTPPVLDSDGSFFLYSKLTVDKSRWQQGNVFSCSVMHEALHAHYTQKSLSLSPGK
light: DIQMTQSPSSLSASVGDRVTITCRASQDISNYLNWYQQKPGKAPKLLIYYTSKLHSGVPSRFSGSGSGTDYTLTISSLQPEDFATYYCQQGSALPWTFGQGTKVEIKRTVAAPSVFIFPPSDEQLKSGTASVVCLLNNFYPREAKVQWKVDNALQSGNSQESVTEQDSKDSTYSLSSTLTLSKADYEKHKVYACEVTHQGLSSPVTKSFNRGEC
notes: also called BiS5 OX40Ab/PD-L1; PD-L1/OX40 BiS5
binding result [10]: binds
binding result [11]: binds
binding result [12]: binds

B5: O13-1 IgG1-TM (antibody, V domains shown)
VH: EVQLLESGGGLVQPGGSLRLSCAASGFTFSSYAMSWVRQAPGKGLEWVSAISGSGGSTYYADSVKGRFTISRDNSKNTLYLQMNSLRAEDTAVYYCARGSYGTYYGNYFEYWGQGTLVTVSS
VL: SYVLTQPPSVSVAPGKTARITCGGDNIGGKSVHWYQQKPGQAPVLVIYYDSDRPSGIPERFSGSNSGNTATLTISRVEAGDEADYYCQVLDRRSDHFLFGGGTKLTVLG
notes: also called anti-TIM3 LOO131
EC50 (read off the curve) [13]: ~0.03 nM
binding result [3]: no binding (tested: about 100 nM)
Kd (human TIM3 (soluble)): 4.01 nM
koff (human TIM3 (soluble)): 0.00752 s⁻¹
kon (human TIM3 (soluble)): 1.88e+06 M⁻¹ s⁻¹
Kd (cynomolgus TIM3): 25.7 nM
koff (cynomolgus TIM3): 0.0718 s⁻¹
kon (cynomolgus TIM3): 2.79e+06 M⁻¹ s⁻¹
